# B1: truncated Myc-tagged DIX domain of DVL2 [human] / Dishevelled-2 (DVL2), full-length, Flag-tagged [human] (parent)
# chain 1: VGETKVIYHLDEEETPYLVKIPVPAERITLGDFKSVLQRPAGAKYFFKSMDQDFGVVKEEISDDNARLPCFNGRVVSWLVSSD
# chain 2: MAGSSTGGGGVGETKVIYHLDEEETPYLVKIPVPAERITLGDFKSVLQRPAGAKYFFKSMDQDFGVVKEEISDDNARLPCFNGRVVSWLVSSDNPQPEMAPPVHEPRAELAPPAPPLPPLPPERTSGIGDSRPPSFHPNVSSSHENLEPETETESVVSLRRERPRRRDSSEHGAGGHRTGGPSRLERHLAGYESSSTLMTSELESTSLGDSDEEDTMSRFSSSTEQSSASRLLKRHRRRRKQRPPRLERTSSFSSVTDSTMSLNIITVTLNMEKYNFLGISIVGQSNERGDGGIYIGSIMKGGAVAADGRIEPGDMLLQVNDMNFENMSNDDAVRVLRDIVHKPGPIVLTVAKCWDPSPQAYFTLPRNEPIQPIDPAAWVSHSAALTGTFPAYPGSSSMSTITSGSSLPDGCEGRGLSVHTDMASVTKAMAAPESGLEVRDRMWLKITIPNAFLGSDVVDWLYHHVEGFPERREARKYASGLLKAGLIRHTVNKITFSEQCYYVFGDLSGGCESYLVNLSLNDNDGSSGASDQDTLAPLPGATPWPLLPTFSYQYPAPHPYSPQPPPYHELSSYTYGGGSASSQHSEGSRSSGSTRSDGGAGRTGRPEERAPESKSGSGSESEPSSRGGSLRRGGEASGTSDGGPPPSRGSTGGAPNLRAHPGLHPYGPPPGMALPYNPMMVVMMPPPPPPVPPAVQPPGAPPVRDLGSVPPELTASRQSFHMAMGNPSEFFVDVM
# Variants of: B1
# Assay: Co-IP (IP: Flag, immunoblot for Myc-DIX) with densitometry
# Conditions: with Dishevelled-2 (DVL2), HEK293T cells, co-immunoprecipitated DIX levels normalized to immunoprecipitated DVL2 levels, three independent experiments, parent: 4.7, read off a plot
row,response,Variant
1,1.1,chain 1 VGETKVIYHLDEEETPYLVKIPVPAERITLGDFKSVLQRPAGAKYFFKSMDQDFGVVREEISDDNARLPCFNGRVVSWLVSSD [chain 1 K58R]
